The Kd is the free concentration of one partner at which half of the binding sites on the other are occupied at equilibrium, for simple one-to-one binding.

The target in experiment [1] is RXFP1 A55L, full length (human).
Experiment [2] has as its target RXFP1 A55S, full length (human).
The target of experiment [3] is T1, RXFP1 A68^Δ, full length (human) (UniProt Q9HBX9).
T1 sequence: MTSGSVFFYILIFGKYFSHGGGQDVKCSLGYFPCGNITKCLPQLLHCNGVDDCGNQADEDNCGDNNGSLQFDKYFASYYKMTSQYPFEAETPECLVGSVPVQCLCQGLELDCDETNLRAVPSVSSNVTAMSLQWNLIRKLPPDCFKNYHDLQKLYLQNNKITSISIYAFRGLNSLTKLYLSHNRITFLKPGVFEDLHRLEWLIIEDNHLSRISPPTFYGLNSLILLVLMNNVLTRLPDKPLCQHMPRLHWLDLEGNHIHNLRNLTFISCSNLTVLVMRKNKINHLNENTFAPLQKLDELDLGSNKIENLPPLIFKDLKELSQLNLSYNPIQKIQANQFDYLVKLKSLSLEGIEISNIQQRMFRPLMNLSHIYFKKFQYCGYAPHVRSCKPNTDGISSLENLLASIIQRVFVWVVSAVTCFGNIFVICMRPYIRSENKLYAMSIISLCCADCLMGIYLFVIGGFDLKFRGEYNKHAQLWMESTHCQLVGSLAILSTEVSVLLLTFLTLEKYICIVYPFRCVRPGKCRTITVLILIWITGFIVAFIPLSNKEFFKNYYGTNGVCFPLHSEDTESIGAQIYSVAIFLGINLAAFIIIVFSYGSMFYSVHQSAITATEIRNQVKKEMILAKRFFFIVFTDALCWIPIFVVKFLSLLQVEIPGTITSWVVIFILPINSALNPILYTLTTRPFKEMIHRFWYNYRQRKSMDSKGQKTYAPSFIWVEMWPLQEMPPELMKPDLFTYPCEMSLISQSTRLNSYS

The target of experiment [4] is T2, RXFP1 D51A, full length (human).
T2 sequence (Q9HBX9 1-757 with D51A, looked up): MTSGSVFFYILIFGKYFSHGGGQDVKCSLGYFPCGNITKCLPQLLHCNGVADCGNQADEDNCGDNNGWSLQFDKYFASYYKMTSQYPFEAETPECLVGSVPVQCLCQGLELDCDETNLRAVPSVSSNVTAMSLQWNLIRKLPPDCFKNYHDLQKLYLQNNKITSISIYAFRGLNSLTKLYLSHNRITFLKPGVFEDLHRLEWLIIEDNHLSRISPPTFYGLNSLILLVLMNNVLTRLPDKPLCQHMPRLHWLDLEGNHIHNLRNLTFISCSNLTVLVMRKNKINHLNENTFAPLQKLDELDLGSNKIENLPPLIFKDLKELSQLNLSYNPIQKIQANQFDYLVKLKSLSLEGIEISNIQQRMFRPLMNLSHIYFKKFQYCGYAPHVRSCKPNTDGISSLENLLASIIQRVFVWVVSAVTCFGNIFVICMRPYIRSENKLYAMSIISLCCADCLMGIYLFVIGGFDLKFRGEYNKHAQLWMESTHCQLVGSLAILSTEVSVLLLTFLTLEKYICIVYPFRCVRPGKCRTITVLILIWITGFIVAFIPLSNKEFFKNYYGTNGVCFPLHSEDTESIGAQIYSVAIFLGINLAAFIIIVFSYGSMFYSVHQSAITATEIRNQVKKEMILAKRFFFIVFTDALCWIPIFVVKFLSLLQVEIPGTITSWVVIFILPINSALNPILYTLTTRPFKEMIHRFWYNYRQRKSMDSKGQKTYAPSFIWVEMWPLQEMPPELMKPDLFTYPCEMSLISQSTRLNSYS

In experiment [5] the target is RXFP1 E67A, full length (human).
In experiment [6] the target is RXFP1 E67A^ins, full length (human).
The target of experiment [7] is RXFP1 F50A, full length (human).
Experiment [8] has as its target RXFP1 F50A^ins, full length (human).
Experiment [9] concerns the target RXFP1 G45A, full length (human).
In experiment [10] the target is RXFP1 K52A, full length (human).
For experiment [11], the target named is RXFP1 Q49A/F50A, full length (human).
Experiment [12] concerns the target RXFP1 S47A/L48A, full length (human).
For experiment [13], the target named is RXFP1 T61A, full length (human).
Experiment [14] concerns the target RXFP1 Y57A, full length (human).
Experiment [15] addresses relaxin family peptide receptor-1 (RXFP1), wild type, full length (human) (UniProt Q9HBX9).
In experiment [16] the target is T3, RXFP1_((1–72)) (human).
T3 sequence (Q9HBX9 1-72, looked up): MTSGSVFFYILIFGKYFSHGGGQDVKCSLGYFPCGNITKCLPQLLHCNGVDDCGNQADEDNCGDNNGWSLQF
Put plainly: NMR titration; 2D 1H-15N HSQC; 50 μM 15N-labelled RXFP1(1–72) titrated with 25-500 μM H2 relaxin; 50 mM imidazole, 10 mM CaCl2, pH 6.8, 25 °C; fit of the shifts of Asp51, Ala55 and Thr61.

B1: H2 relaxin (ligand, human)
chain 1: QLYSALANKCCHVGCTKRSLARFC
chain 2: DSWMEEVIKLCGRELVRAQIAICGMSTWS
For the molecule B1, the H2 relaxin-induced cAMP response (pCRE β-galactosidase reporter, HEK293T), pEC50 in experiment [1] came to 10.8 pEC50; in experiment [2] it was 11.4 pEC50; in experiment [3], 11.2 pEC50; in experiment [4] it was 11 pEC50; in [5], 11.1 pEC50; in [6] it was 11.3 pEC50. In addition, the H2 relaxin-induced cAMP response (pCRE β-galactosidase reporter, HEK293T), pEC50 in experiment [7] amounted to 9.45 pEC50; in experiment [8], 9.41 pEC50; in [9] it was 7.48 pEC50; in experiment [10] it was 11.1 pEC50; in [11], 9.17 pEC50; in experiment [12] it was 11.1 pEC50. For the same molecule, the figures for the H2 relaxin-induced cAMP response (pCRE β-galactosidase reporter, HEK293T), pEC50 in experiment [13], in experiment [14] and in experiment [15] were 11.2 pEC50, 10.9 pEC50 and 11 pEC50, respectively. The Kd in experiment [16] worked out at 200 µM.

These data come from publication PMC4837482, “The complex binding mode of the peptide hormone H2 relaxin to its receptor RXFP1” (Nature Communications, 2016).
